Results reported in PMC5473137, “Structure of a SMG8–SMG9 complex identifies a G-domain heterodimer in the NMD effector proteins” (RNA, 2017).

Molecular target: T1, C. elegans SMG8c (SMG8 residues 1-423) (C. elegans, UniProt O62301 1-423)
T1 construct: SMG8, C. elegans, full length 873 residues; core fragment residues 1-423 (G-like domain and stalk); Selenomethionine-substituted protein (about 60% incorporation) was used for phasing; native crystals were soaked with GDP; SMG8 was insoluble when expressed in isolation; also called C.e; SMG8 1-423; CeSMG8
T1 sequence (looked up): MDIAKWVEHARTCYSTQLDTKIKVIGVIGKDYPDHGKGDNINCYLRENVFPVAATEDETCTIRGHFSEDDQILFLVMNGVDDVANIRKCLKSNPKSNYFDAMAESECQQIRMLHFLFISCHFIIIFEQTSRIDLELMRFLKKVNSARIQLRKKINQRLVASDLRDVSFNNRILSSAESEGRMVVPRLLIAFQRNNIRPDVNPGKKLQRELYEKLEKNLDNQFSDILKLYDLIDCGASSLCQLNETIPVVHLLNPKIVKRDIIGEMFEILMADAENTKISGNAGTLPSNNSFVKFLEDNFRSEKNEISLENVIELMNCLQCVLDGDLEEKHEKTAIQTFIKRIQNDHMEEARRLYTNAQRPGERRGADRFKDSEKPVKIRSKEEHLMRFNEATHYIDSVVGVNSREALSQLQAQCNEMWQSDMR
Assay: crystal structure; coexpressed and co-purified SMG8c-SMG9c core complex; vapor diffusion, 10% PEG3350, 0.1M Tris pH 8.5, 0.11 mM YCl3; SeMet crystals (2.5 Å) and native crystals soaked with 10 mM GDP (2.65 Å); three copies of the complex in the asymmetric unit
Settings: both partners purified

B1: C. elegans SMG9c (SMG9 residues 59-375) (domain or fragment, UniProt Q9XWJ1 59-375, looked up)
chain: MKESVRFLTDFGEISDAISDLLTSSPNFNVISAIGPQGAGKSTLLSMLAGNNSRQMYREYVFRPVSREANEQSRHQTIQIDIYIVNHQIFLDCQPMYSFSIMEGLPKVRGGRFDDSTAMSDTLRLTAFLLYVSHTVLVVSETHYDKVIIDTLRVAEQIRPYLAIFRPKLAIDRKTNLVFIKTKASSIDLAPTVIREREELLRLSFQDSRWLKVSQEPFKTLIVLEEIRVRREHLFEEGDEPDEAASLNEFDEQIAELREELQKNREDFTVETAAMDEKKWLDMCREVIRDKTLHKTLKEYQRAMTDGVRTHFDNGFH
notes: SMG9, C. elegans, full length 385 residues; core fragment residues 59-375 (G domain); Selenomethionine-substituted protein (about 60% incorporation) was used for phasing; native crystals were soaked with GDP; also called C.e; SMG9 59-375; CeSMG9c
binding result: binds
